Measured values taken from the RNAGym collection of RNA variant scans (doi:10.1093/nar/gkz1192).

B1: CPEB3 Ribozyme (parent)
chain: UAACAGGGGGCCACAGCAGAAGCGUUCACGUCGCAGCCCCUGUCAGAUUCUGGUGAAUCUGCGAAUUCUGCUGUAUAUCUC

Variants of: B1
Test: self-cleavage, relative activity (ratio to wild type); higher = more cleavage; in vitro, sequencing
Procedure, shortened: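 Relative activity was defined as the cleaved/total read fraction for a variant divided by the same fraction for the unmutated ribozyme. CPEB3 self-cleaving ribozyme libraries were made by rounds of error-prone PCR, barcoded, and transcribed in vitro with T7 RNA polymerase for 5 hours at 37°C, and cleavage ran through transcription plus a 15 min DNase I step before EDTA. Illumina sequencing of template-switched reverse transcripts gave the reads, and DNA sequencing mapped the barcodes. Averages come from three batches, using variants with at least 5 reads.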

Variant	self-cleavage
C34U G36U	0.14
C34U G46A	0.07
C34U G52U	0.33
C34U G61U	0.19
C34U G63A	0.27
C34U G63U	0.38
C34U G70A	0.14
C34U U41A	0.4
C34U U41C	0.5
C34U U41G	0.12
C34U U43A	0.51
C34U U43C	0.22
C34U U48C	0.47
C34U U48G	0.3
C34U U49C	0.16
C34U U51A	0.34
C34U U51G	0.54
C34U U54A	0.24
C34U U54C	0.44
C34U U58C	0.16
C34U U60A	0.14
C34U U60C	0.11
C34U U66C	0.35
C34U U67A	0.42

Variant	self-cleavage
C34U U67C	0.12
C34U U67G	0.12
C34U U69A	0.13
C34U U69C	0.35
C34U U72A	0.26
C34U U72C	0.63
C34U U72G	0.33
C34U U74A	0.52
C34U U74C	0.84
C34U U76A	0.5
C34U U76C	0.35
C34U U78C	0.3
C34U U80A	0.51
C34U U80C	0.58
C34U U80G	0.27
A35C	0.85
A35C A45C	0.31
A35C A45U	0.24
A35C A47G	0.81
A35C A47U	0.63
A35C A56G	0.77
A35C A56U	0.53
A35C A57C	0.28
A35C A57G	0.93

Variant	self-cleavage
A35C A64G	0.3
A35C A64U	0.25
A35C A65G	0.34
A35C A75G	0.87
A35C A75U	0.97
A35C A77U	1.07
A35C C38A	0.2
A35C C39A	0.31
A35C C40A	0.6
A35C C50A	0.92
A35C C81U	0.93
A35C G55U	0.81
A35C G61A	0.41
A35C U41A	0.47
A35C U41C	0.72
A35C U41G	0.2
A35C U43A	1.06
A35C U43C	0.35
A35C U48A	0.45
A35C U48C	0.47
A35C U49C	0.4
A35C U51A	1
A35C U51C	0.79
A35C U54C	0.8

Variant	self-cleavage
A35C U60C	0.48
A35C U66A	0.21
A35C U66C	0.5
A35C U67A	0.23
A35C U67C	0.23
A35C U67G	0.39
A35C U69A	0.53
A35C U69C	0.46
A35C U69G	0.62
A35C U72C	1.14
A35C U72G	0.43
A35C U74C	1.17
A35C U76C	0.96
A35C U76G	0.77
A35C U78A	0.74
A35C U78C	0.73
A35C U80A	0.89
A35C U80C	0.84
A35G	1.27
A35G A45C	1.17
A35G A45G	1.26
A35G A45U	1.13
A35G A47C	1.3
A35G A47G	1.26

Variant	self-cleavage
A35G A47U	1.16
A35G A56C	1.27
A35G A56G	1.27
A35G A56U	1.24
A35G A57G	1.27
A35G A57U	1.22
A35G A64C	0.98
A35G A64G	1.28
A35G A64U	1.12
A35G A65C	0.67
A35G A65G	1.19
A35G A65U	0.96
A35G A75C	1.25
A35G A75G	1.31
A35G A75U	1.27
A35G A77C	1.27
A35G A77G	1.39
A35G A77U	1.28
A35G C37A	0.86
A35G C37G	0.89
A35G C38A	1.21
A35G C38G	0.96
A35G C38U	1.23
A35G C39A	0.95

Variant	self-cleavage
A35G C39G	0.59
A35G C39U	1.21
A35G C40A	0.55
A35G C40G	0.66
A35G C40U	1.23
A35G C50A	1.1
A35G C50U	1.35
A35G C59U	1.2
A35G C62A	0.52
A35G C62G	0.51
A35G C62U	0.34
A35G C68A	1.19
A35G C79A	1.3
A35G C79U	1.51
A35G C81A	1.3
A35G C81U	1.29
A35G G36A	0.92
A35G G36C	0.29
A35G G36U	0.5
A35G G42A	0.5
A35G G42C	0.16
A35G G46A	0.96
A35G G46C	1.12
A35G G52A	1.36

Variant	self-cleavage
A35G G52C	1.27
A35G G52U	1.36
A35G G53A	1.33
A35G G53U	1.27
A35G G55A	1.23
A35G G55C	1.46
A35G G61A	1.11
A35G G61U	1.23
A35G G63A	1.29
A35G G63C	1.27
A35G G63U	1.2
A35G G70A	1.13
A35G G70U	0.78
A35G G73A	1.46
A35G U41A	0.44
A35G U41C	1.23
A35G U41G	0.33
A35G U43A	1.28
A35G U43C	1.22
A35G U43G	0.36
A35G U48A	1.14
A35G U48C	1.21
A35G U49A	1.23
A35G U49C	1.05

Variant	self-cleavage
A35G U51A	1.32
A35G U51C	1.27
A35G U51G	1.28
A35G U54A	1.28
A35G U54C	1.29
A35G U54G	1.32
A35G U58A	1.07
A35G U58C	1.23
A35G U58G	1.09
A35G U60A	1.14
A35G U60C	1.03
A35G U60G	1.04
A35G U66A	1.34
A35G U66C	1.17
A35G U66G	1.26
A35G U67A	1.2
A35G U67C	0.56
A35G U67G	1.11
A35G U69A	1.22
A35G U69C	1.2
A35G U69G	1.33
A35G U72A	1.22
A35G U72C	1.26
A35G U72G	1.29

Variant	self-cleavage
A35G U74A	1.33
A35G U74C	1.29
A35G U74G	1.27
A35G U76A	1.33
A35G U76C	1.29
A35G U76G	1.49
A35G U78A	1.35
A35G U78C	1.3
A35G U78G	1.29
A35G U80A	1.32
A35G U80C	1.3
A35G U80G	1.37
A35U	0.54
A35U A45C	0.18
A35U A45G	0.32
A35U A45U	0.32
A35U A47C	0.4
A35U A47G	0.48
A35U A47U	0.26
A35U A56C	0.23
A35U A56G	0.5
A35U A56U	0.33
A35U A57C	0.31
A35U A57G	0.47

Variant	self-cleavage
A35U A57U	0.2
A35U A64C	0.16
A35U A64G	0.39
A35U A64U	0.48
A35U A65C	0.45
A35U A65G	0.26
A35U A65U	0.26
A35U A75C	0.71
A35U A75G	0.58
A35U A75U	0.56
A35U A77G	0.57
A35U A77U	0.59
A35U C37U	0.28
A35U C38A	0.21
A35U C38U	0.47
A35U C39A	0.27
A35U C39U	0.49
A35U C40A	0.09
A35U C40G	0.17
A35U C40U	0.37
A35U C44A	0.16
A35U C44U	0.16
A35U C50A	0.43
A35U C59A	0.15

Variant	self-cleavage
A35U C59U	0.29
A35U C62A	0.13
A35U C62G	0.28
A35U C62U	0.13
A35U C68A	0.11
A35U C71A	0.13
A35U C71G	0.15
A35U C71U	0.37
A35U C79U	0.64
A35U C81G	0.39
A35U C81U	0.61
A35U G36A	0.19
A35U G36U	0.1
A35U G46A	0.16
A35U G46U	0.19
A35U G52A	0.54
A35U G52C	0.44
A35U G52U	0.72
A35U G53A	0.51
A35U G53U	0.76
A35U G55C	0.47
A35U G55U	0.43
A35U G61A	0.27
A35U G61U	0.42

Variant	self-cleavage
A35U G63A	0.27
A35U G63C	0.45
A35U G63U	0.52
A35U G70A	0.2
A35U G70C	0.34
A35U G73A	0.88
A35U U41A	0.3
A35U U41C	0.5
A35U U41G	0.32
A35U U43A	0.71
A35U U43C	0.35
A35U U43G	0.15
A35U U48A	0.32
A35U U48C	0.32
A35U U48G	0.26
A35U U49A	0.39
A35U U49C	0.27
A35U U51A	0.56
A35U U51C	0.46
A35U U51G	0.47
A35U U54A	0.55
A35U U54C	0.5
A35U U54G	0.58
A35U U58A	0.32

Variant	self-cleavage
A35U U58C	0.27
A35U U58G	0.15
A35U U60A	0.25
A35U U60C	0.24
A35U U60G	0.17
A35U U66A	0.34
A35U U66C	0.25
A35U U66G	0.13
A35U U67A	0.24
A35U U67C	0.21
A35U U67G	0.35
A35U U69A	0.26
A35U U69C	0.23
A35U U69G	0.26
A35U U72A	0.31
A35U U72C	0.54
A35U U72G	0.54
A35U U74A	0.89
A35U U74C	0.86
A35U U76A	0.65
A35U U76C	0.52
A35U U78A	0.54
A35U U78C	0.52
A35U U80A	0.58

Variant	self-cleavage
A35U U80C	0.63
A35U U80G	0.65
G36A	0.29
G36A A45G	0.21
G36A A45U	0.27
G36A A47G	0.34
G36A A47U	0.13
G36A A56G	0.19
G36A A57G	0.17
G36A A64G	0.15
G36A A64U	0.14
G36A A65G	0.17
G36A A75C	0.28
G36A A75U	0.36
G36A A77C	0.48
G36A A77G	0.17
G36A C39G	0.16
G36A C44G	0.14
G36A C50A	0.25
G36A C59U	0.31
G36A C62A	0.41
G36A C71U	0.15
